Literature values, collected in publication PMC4618378.
pKi: −log10 of the molar value.

Legend:
[1] = target: cone PDE6 gamma-subunit (Homo sapiens) (UniProt Q13956)
[2] = target: rod PDE6 gamma-subunit (Homo sapiens) (UniProt P18545)
UniProt P18545, sequence (P18545 whole entry): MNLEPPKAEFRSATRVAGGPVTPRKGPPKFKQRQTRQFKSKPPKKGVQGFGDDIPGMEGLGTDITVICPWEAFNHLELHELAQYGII

UniProt Q13956, sequence (Q13956 whole entry): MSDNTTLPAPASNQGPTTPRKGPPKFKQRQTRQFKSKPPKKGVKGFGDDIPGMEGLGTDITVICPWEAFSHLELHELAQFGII

In the case of PDE6C (from UniProt P51160), the pKi [1] is listed as 10.11 and the pKi [2] is listed as 9.81.
